Consider 2 molecules from publication PMC8943033, “A toolkit for recombinant production of seven human EGF family growth factors in active conformation” (Scientific Reports, 2022).

Experiment [1] has as its target human heparin-binding epidermal growth factor, recombinant heparin-binding and EGF domains (human, UniProt Q99075 63-148). Description: SEC; Superdex 75 10/300 GL, 25 mM Tris.HCl pH 8.0; 150 mM NaCl, flow rate 0.8 mL/min; oligomeric state read from the elution volume. The note with it: both partners purified. On the technique in general: SEC sorts molecules by how far they enter the pores of the column.

Experiment [2] deals with human amphiregulin, recombinant heparin-binding and EGF domains (human, UniProt P15514 101-198). The description is as above. The note with it: both partners purified.

B1: human heparin-binding epidermal growth factor, recombinant heparin-binding and EGF domains (ligand)
chain: DLQEADLDLLRVTLSSKPQALATPNKEEHGKRKKKGKGLGKKRDPCLRKYKDFCIHGECKYVKELRAPSCICHPGYHGERCHGLSL
modifications: three disulfides (C1-C3, C2-C4, C5-C6); SEC suggests a dimer; N-terminal pET32a linker remnant omitted / three disulfides (C1-C3, C2-C4, C5-C6); SEC suggests a dimer; N-terminal pET32a linker remnant
On to B1, for which the stoichiometry N (in general, a count of units in the complex or per binding partner) in experiment [1] worked out at 2.

B2: human amphiregulin, recombinant heparin-binding and EGF domains (ligand)
chain: SVRVEQVVKPPQNKTESENTSDKPKRKKKGGKNGKNRRNRKKKNPCNAEFQNFCIHGECKYIEHLEAVTCKCQQEYFGERCGEKSMKTHSMIDSSLSK
modifications: three disulfides (C1-C3, C2-C4, C5-C6); SEC suggests a dimer; N-terminal pET32a linker remnant omitted / three disulfides (C1-C3, C2-C4, C5-C6); SEC suggests a dimer; N-terminal pET32a linker remnant
Regarding B2, in experiment [2], the “stoichiometry N” value amounted to 2.
